In patent US20230372448A1, “THERAPEUTIC USE OF LONG-ACTING CONJUGATE OF TRIPLE AGONIST ACTING ON ALL OF GLUCAGON, GLP-1 AND GIP RECEPTORS AGAINST MULTIPLE SCLEROSIS” (HANMI PHARM. CO. ,LTD., priority 2020, published 2023):
Positions of bridges follow the written chain, without caps; N, C: chain ends. Non-standard residues stand in square brackets, D forms with d. No end group written: not given here. *: point of attachment. Acetyl(2-(4-imidazolyl)) = O=C(Cc1c[nH]cn1)*; Aib = CC(C)(N)C(=O)O

T1: human GIP receptor (human, UniProt P48546 22-466)
T1 sequence (looked up): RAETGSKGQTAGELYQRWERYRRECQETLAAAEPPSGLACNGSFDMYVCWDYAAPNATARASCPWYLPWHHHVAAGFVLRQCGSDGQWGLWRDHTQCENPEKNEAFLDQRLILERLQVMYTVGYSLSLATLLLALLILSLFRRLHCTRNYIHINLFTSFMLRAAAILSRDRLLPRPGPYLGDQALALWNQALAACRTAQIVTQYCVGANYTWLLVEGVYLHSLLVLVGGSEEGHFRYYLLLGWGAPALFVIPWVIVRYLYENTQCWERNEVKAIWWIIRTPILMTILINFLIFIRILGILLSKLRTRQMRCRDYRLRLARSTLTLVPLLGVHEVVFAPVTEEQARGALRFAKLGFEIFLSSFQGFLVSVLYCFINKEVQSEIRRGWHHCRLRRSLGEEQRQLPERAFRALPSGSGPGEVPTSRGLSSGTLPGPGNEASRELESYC


These binders were tested against human GLP-1 receptor (human, UniProt P43220 24-463) (assay: cell-based or functional assay).

Binder	In vitro activity (%) compared with native peptide: vs GLP-1 [%]
HGQGTFTSDCSKQLDGQAAQEFVAWLLAGGPSSGAPPPS (ends and bridges not checked) [triple agonist of SEQ ID NO: 44]	1.3
HGQGTFTSDCSKYLDGQRAQEFVAWLLAGGPSSGAPPPS (ends and bridges not checked) [triple agonist of SEQ ID NO: 47]	2.4
HGQGTFTSDCSKYLDGQRAQDFVNWLLAGGPSSGAPPPS (ends and bridges not checked) [triple agonist of SEQ ID NO: 48]	1.5
HGQGTFTSDCSKYLDEQHAQEFVAWLLAGGPSSGAPPPS (ends and bridges not checked) [triple agonist of SEQ ID NO: 46]	1.4
HGQGTFTSDCSKYMDGQAAQDFVAWLLAGGPSSGAPPPS (ends and bridges not checked) [triple agonist of SEQ ID NO: 45]	6.6
H[Aib]QGTFTSDYSKYLDGQHAQCFVAWLLAGGGPSSGAPPPS (also: ring from underlined residues, positions not shown) [triple agonist of SEQ ID NO: 39]	13.9
H[Aib]QGTFTSDYSKYLDEKRQKEFVQWLLNTKC (bridge 16-20; not fully specified) [triple agonist of SEQ ID NO: 58]	39.1
H[Aib]EGTFTSDYSIAMDEIHQKDFVDWLLAEC (bridge 16-20; not fully specified) [triple agonist of SEQ ID NO: 54]	30.6
H[Aib]QGTFTSDVSSYLLGQQQKEFIAWLVKGGGPSSGAPPPSC (not fully specified) [triple agonist of SEQ ID NO: 5]	42.1
H[Aib]QGTFTSDYSIAMDEIHQKDFVNWLLNTKC (bridge 16-20; not fully specified) [triple agonist of SEQ ID NO: 35]	7.5
H[Aib]QGTFTSDVSSYLDGQAAKEFIAWLVKGC (not fully specified) [triple agonist of SEQ ID NO: 1]	3.2
Y[Aib]QGTFTSDYSKYLDEKRAKEFVQWLLDHHCSSGQPPPS (bridge 16-20; not fully specified) [triple agonist of SEQ ID NO: 43]	12.6
H[Aib]QGTFTSDYSKYLDEKRAKEFVQWLLDHHPSSGQPPPSC (bridge 16-20; not fully specified) [triple agonist of SEQ ID NO: 50]	67.4
{Acetyl(2-(4-imidazolyl))}-[Aib]QGTFTSDYSICMDEIHQKDFVNWLLNTK (bridge 15-19; not fully specified) [triple agonist of SEQ ID NO: 49]	29.8

What follows are binders tested against human GCG receptor (human, UniProt P47871 26-477) (assay: cell-based or functional assay).
human GCG receptor, sequence (P47871 26-477): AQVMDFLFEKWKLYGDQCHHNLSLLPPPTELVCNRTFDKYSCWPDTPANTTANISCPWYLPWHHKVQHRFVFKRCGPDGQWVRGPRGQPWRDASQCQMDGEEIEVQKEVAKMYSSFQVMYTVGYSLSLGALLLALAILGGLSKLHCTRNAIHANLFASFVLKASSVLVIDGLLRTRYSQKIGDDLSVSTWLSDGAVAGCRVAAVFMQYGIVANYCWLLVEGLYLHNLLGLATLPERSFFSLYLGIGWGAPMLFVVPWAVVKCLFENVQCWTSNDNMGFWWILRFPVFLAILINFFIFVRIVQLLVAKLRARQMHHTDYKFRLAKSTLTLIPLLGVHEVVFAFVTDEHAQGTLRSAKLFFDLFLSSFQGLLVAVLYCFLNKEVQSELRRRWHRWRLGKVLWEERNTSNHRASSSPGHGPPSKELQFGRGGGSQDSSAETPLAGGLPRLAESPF

Binder	In vitro activity (%) compared with native peptide: vs Glucagon [%]
HGQGTFTSDCSKQLDGQAAQEFVAWLLAGGPSSGAPPPS (ends and bridges not checked) [triple agonist of SEQ ID NO: 44]	< 0.1
HGQGTFTSDCSKYLDGQRAQEFVAWLLAGGPSSGAPPPS (ends and bridges not checked) [triple agonist of SEQ ID NO: 47]	< 0.1
HGQGTFTSDCSKYLDGQRAQDFVNWLLAGGPSSGAPPPS (ends and bridges not checked) [triple agonist of SEQ ID NO: 48]	< 0.1
HGQGTFTSDCSKYLDEQHAQEFVAWLLAGGPSSGAPPPS (ends and bridges not checked) [triple agonist of SEQ ID NO: 46]	< 0.1
HGQGTFTSDCSKYMDGQAAQDFVAWLLAGGPSSGAPPPS (ends and bridges not checked) [triple agonist of SEQ ID NO: 45]	< 0.1
H[Aib]QGTFTSDYSKYLDGQHAQCFVAWLLAGGGPSSGAPPPS (also: ring from underlined residues, positions not shown) [triple agonist of SEQ ID NO: 39]	0.53
H[Aib]QGTFTSDYSKYLDEKRQKEFVQWLLNTKC (bridge 16-20; not fully specified) [triple agonist of SEQ ID NO: 58]	2.6
H[Aib]EGTFTSDYSIAMDEIHQKDFVDWLLAEC (bridge 16-20; not fully specified) [triple agonist of SEQ ID NO: 54]	1.4
H[Aib]QGTFTSDVSSYLLGQQQKEFIAWLVKGGGPSSGAPPPSC (not fully specified) [triple agonist of SEQ ID NO: 5]	< 0.1
H[Aib]QGTFTSDYSIAMDEIHQKDFVNWLLNTKC (bridge 16-20; not fully specified) [triple agonist of SEQ ID NO: 35]	< 0.1
H[Aib]QGTFTSDVSSYLDGQAAKEFIAWLVKGC (not fully specified) [triple agonist of SEQ ID NO: 1]	< 0.1
Y[Aib]QGTFTSDYSKYLDEKRAKEFVQWLLDHHCSSGQPPPS (bridge 16-20; not fully specified) [triple agonist of SEQ ID NO: 43]	88.4
H[Aib]QGTFTSDYSKYLDEKRAKEFVQWLLDHHPSSGQPPPSC (bridge 16-20; not fully specified) [triple agonist of SEQ ID NO: 50]	50.5
{Acetyl(2-(4-imidazolyl))}-[Aib]QGTFTSDYSICMDEIHQKDFVNWLLNTK (bridge 15-19; not fully specified) [triple agonist of SEQ ID NO: 49]	< 0.1

Each binder was assayed against T1, human GIP receptor (assay: cell-based or functional assay).

Binder	In vitro activity (%) compared with native peptide: vs GIP [%]
HGQGTFTSDCSKQLDGQAAQEFVAWLLAGGPSSGAPPPS (ends and bridges not checked) [triple agonist of SEQ ID NO: 44]	< 0.1
HGQGTFTSDCSKYLDGQRAQEFVAWLLAGGPSSGAPPPS (ends and bridges not checked) [triple agonist of SEQ ID NO: 47]	< 0.1
HGQGTFTSDCSKYLDGQRAQDFVNWLLAGGPSSGAPPPS (ends and bridges not checked) [triple agonist of SEQ ID NO: 48]	< 0.1
HGQGTFTSDCSKYLDEQHAQEFVAWLLAGGPSSGAPPPS (ends and bridges not checked) [triple agonist of SEQ ID NO: 46]	< 0.1
HGQGTFTSDCSKYMDGQAAQDFVAWLLAGGPSSGAPPPS (ends and bridges not checked) [triple agonist of SEQ ID NO: 45]	< 0.1
H[Aib]QGTFTSDYSKYLDGQHAQCFVAWLLAGGGPSSGAPPPS (also: ring from underlined residues, positions not shown) [triple agonist of SEQ ID NO: 39]	< 0.1
H[Aib]QGTFTSDYSKYLDEKRQKEFVQWLLNTKC (bridge 16-20; not fully specified) [triple agonist of SEQ ID NO: 58]	0.2
H[Aib]EGTFTSDYSIAMDEIHQKDFVDWLLAEC (bridge 16-20; not fully specified) [triple agonist of SEQ ID NO: 54]	0.1
H[Aib]QGTFTSDVSSYLLGQQQKEFIAWLVKGGGPSSGAPPPSC (not fully specified) [triple agonist of SEQ ID NO: 5]	< 0.1
H[Aib]QGTFTSDYSIAMDEIHQKDFVNWLLNTKC (bridge 16-20; not fully specified) [triple agonist of SEQ ID NO: 35]	1.3
H[Aib]QGTFTSDVSSYLDGQAAKEFIAWLVKGC (not fully specified) [triple agonist of SEQ ID NO: 1]	< 0.1
Y[Aib]QGTFTSDYSKYLDEKRAKEFVQWLLDHHCSSGQPPPS (bridge 16-20; not fully specified) [triple agonist of SEQ ID NO: 43]	3.7
H[Aib]QGTFTSDYSKYLDEKRAKEFVQWLLDHHPSSGQPPPSC (bridge 16-20; not fully specified) [triple agonist of SEQ ID NO: 50]	2.7
{Acetyl(2-(4-imidazolyl))}-[Aib]QGTFTSDYSICMDEIHQKDFVNWLLNTK (bridge 15-19; not fully specified) [triple agonist of SEQ ID NO: 49]	3.3
